Measurements: the RNAGym collection of RNA variant scans (doi:10.1093/molbev/msab373)

B1: Azoarcus group I ribozyme (parent)
chain: GUGCCUUGCGCCGGGAAACCACGCAAGGGAUGGUGUCAAAUUCGGCGAAACCUAAGCGCCCGCCCGGGCGUAUGGCAACGCCGAGCCAAGCUUCGGCGCCUGCGCCGAUGAAGGUGUAGAGACUAGACGGCACCCACCUAAGGCAAACGCUAUGGUGAAGGCAUAGUCCAGGGAGUGGCGAAAGUCACACAAACCGG

Variants of: B1
Experiment: reverse-splicing fitness (ratio to wild type); higher = more active; in vitro selection; Mg2+ level not given
Summary of the method: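 An in vitro group I ribozyme library with randomized positions was T7-transcribed and gel-purified. In triplicate, 10 pmol RNA in EPPS pH 7.5 was reacted with 50 pmoles of a 30-nt RNA substrate for 1 h at 37 °C across several added MgCl2 levels (1–48 mM), then stopped with EDTA. Products were reverse transcribed from a substrate-complementary primer, PCR-amplified and sequenced (HiSeq 4000). Fitness is a variant's read proportion after selection over that before, normalised to wild type.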

Question: With A111G A120G A145U C150A C169G as the variant, how does the reverse-splicing fitness read?
Answer: Its reverse-splicing fitness is 0.0305.

Question: With A111G A120G A145U C150A C169U as the variant, how does the reverse-splicing fitness read?
Answer: Its reverse-splicing fitness is 0.0268.

Question: With A111G A120G A145U C150A C169A as the variant, how does the reverse-splicing fitness read?
Answer: The reverse-splicing fitness was 0.018.

Question: With A111G A120G A145C C150A U176G as the variant, how does the reverse-splicing fitness read?
Answer: Its reverse-splicing fitness is 0.00495.

Question: With A111G A120G A145C C150A U176C as the variant, how does the reverse-splicing fitness read?
Answer: The reverse-splicing fitness was 0.0131.

Question: For A111G A120G A145C C150A U176A, which reverse-splicing fitness is on record?
Answer: The reverse-splicing fitness was 0.0131.

Question: For A111G A120G A145U C150G C169A, which reverse-splicing fitness is on record?
Answer: The reverse-splicing fitness was 0.0193.

Question: With A111G A120G A145U C150G C169U as the variant, how does the reverse-splicing fitness read?
Answer: The reverse-splicing fitness was 0.0301.

Question: Which reverse-splicing fitness does the source give for A111G A120G A145U C150G C169G here?
Answer: Its reverse-splicing fitness is 0.0297.

Question: For A111G A120C C150U C169U, which reverse-splicing fitness is on record?
Answer: The reverse-splicing fitness was 0.161.

Question: For A111G A120C C150U C169G, which reverse-splicing fitness is on record?
Answer: The reverse-splicing fitness was 0.0131.

Question: Which reverse-splicing fitness does the source give for A111G A120C C150U C169A here?
Answer: The reverse-splicing fitness was 0.012.

Question: Which reverse-splicing fitness does the source give for A111G A120C A145G C169G U176G here?
Answer: The reverse-splicing fitness was 0.00387.

Question: Which reverse-splicing fitness does the source give for A111G A120C A145G C169G U176A here?
Answer: The reverse-splicing fitness was 0.019.

Question: With A111G A120C A145G C169G U176C as the variant, how does the reverse-splicing fitness read?
Answer: Its reverse-splicing fitness is 0.0194.

Question: With A111G A120C C150A C169U U176C as the variant, how does the reverse-splicing fitness read?
Answer: Its reverse-splicing fitness is 0.022.

Question: For A111G A120C C150A C169U U176A, which reverse-splicing fitness is on record?
Answer: Its reverse-splicing fitness is 0.0231.

Question: With A111G A120C C150A C169U U176G as the variant, how does the reverse-splicing fitness read?
Answer: Its reverse-splicing fitness is 0.00616.

Question: With A111G A120G A145C C169U U176C as the variant, how does the reverse-splicing fitness read?
Answer: Its reverse-splicing fitness is 0.0829.

Question: For A111G A120G A145C C169U U176A, which reverse-splicing fitness is on record?
Answer: The reverse-splicing fitness was 0.0733.

Question: Which reverse-splicing fitness does the source give for A111G A120G A145C C169U U176G here?
Answer: Its reverse-splicing fitness is 0.00876.

Question: Which reverse-splicing fitness does the source give for A111G A120C A145G U176A here?
Answer: The reverse-splicing fitness was 0.457.

Question: Which reverse-splicing fitness does the source give for A111G A120C A145G U176C here?
Answer: The reverse-splicing fitness was 0.44.

Question: With A111G A120C A145G U176G as the variant, how does the reverse-splicing fitness read?
Answer: Its reverse-splicing fitness is 0.0972.

Question: With A111G A120G A145G C150G C169G U176C as the variant, how does the reverse-splicing fitness read?
Answer: The reverse-splicing fitness was 0.0117.

Question: For A111G A120G A145G C150G C169G U176A, which reverse-splicing fitness is on record?
Answer: The reverse-splicing fitness was 0.00945.

Question: With A111G A120G A145G C150G C169G U176G as the variant, how does the reverse-splicing fitness read?
Answer: Its reverse-splicing fitness is 0.0054.

Question: Which reverse-splicing fitness does the source give for A111G A120G A145G C150G C169A U176A here?
Answer: Its reverse-splicing fitness is 0.0122.

Question: Which reverse-splicing fitness does the source give for A111G A120G A145G C150G C169A U176G here?
Answer: Its reverse-splicing fitness is 0.00709.

Question: For A111G A120G A145G C150G C169A U176C, which reverse-splicing fitness is on record?
Answer: Its reverse-splicing fitness is 0.0143.

Question: With A111G A120G A145G C150G as the variant, how does the reverse-splicing fitness read?
Answer: Its reverse-splicing fitness is 0.0366.

Question: For A111G A120G A145G C150U, which reverse-splicing fitness is on record?
Answer: The reverse-splicing fitness was 0.244.

Question: With A111G A120G A145G C150A as the variant, how does the reverse-splicing fitness read?
Answer: Its reverse-splicing fitness is 0.0452.

Question: With A111G A120C A145U C150U U176C as the variant, how does the reverse-splicing fitness read?
Answer: The reverse-splicing fitness was 0.357.

Question: For A111G A120C A145U C150U U176A, which reverse-splicing fitness is on record?
Answer: The reverse-splicing fitness was 0.365.

Question: With A111G A120C A145U C150U U176G as the variant, how does the reverse-splicing fitness read?
Answer: The reverse-splicing fitness was 0.0965.

Question: For A111G A120G A145C U176C, which reverse-splicing fitness is on record?
Answer: The reverse-splicing fitness was 0.104.

Question: With A111G A120G A145C U176G as the variant, how does the reverse-splicing fitness read?
Answer: The reverse-splicing fitness was 0.00892.

Question: Which reverse-splicing fitness does the source give for A111G A120G A145C U176A here?
Answer: Its reverse-splicing fitness is 0.0723.

Question: Which reverse-splicing fitness does the source give for A111G A120C A145U C150G C169A U176C here?
Answer: Its reverse-splicing fitness is 0.00745.

Question: For A111G A120C A145U C150G C169A U176A, which reverse-splicing fitness is on record?
Answer: The reverse-splicing fitness was 0.00723.

Question: With A111G A120C A145U C150G C169A U176G as the variant, how does the reverse-splicing fitness read?
Answer: The reverse-splicing fitness was 0.00414.

Question: Which reverse-splicing fitness does the source give for A111G A120G A145G C150A C169G here?
Answer: Its reverse-splicing fitness is 0.0514.

Question: For A111G A120G A145G C150A C169A, which reverse-splicing fitness is on record?
Answer: Its reverse-splicing fitness is 0.0278.

Question: With A111G A120G A145G C150A C169U as the variant, how does the reverse-splicing fitness read?
Answer: Its reverse-splicing fitness is 0.0458.

Question: With A111G A120C C150G C169A U176C as the variant, how does the reverse-splicing fitness read?
Answer: Its reverse-splicing fitness is 0.00784.

Question: Which reverse-splicing fitness does the source give for A111G A120C C150G C169A U176A here?
Answer: Its reverse-splicing fitness is 0.00551.

Question: For A111G A120C C150G C169A U176G, which reverse-splicing fitness is on record?
Answer: Its reverse-splicing fitness is 0.00466.

Question: Which reverse-splicing fitness does the source give for A111G A120G A145G C150U C169G here?
Answer: The reverse-splicing fitness was 0.255.

Question: For A111G A120G A145G C150U C169U, which reverse-splicing fitness is on record?
Answer: The reverse-splicing fitness was 0.2.

Question: For A111G A120G A145G C150U C169A, which reverse-splicing fitness is on record?
Answer: The reverse-splicing fitness was 0.131.

Question: For A111G A120C A145U C150G C169U, which reverse-splicing fitness is on record?
Answer: Its reverse-splicing fitness is 0.0352.

Question: For A111G A120C A145U C150G C169A, which reverse-splicing fitness is on record?
Answer: Its reverse-splicing fitness is 0.00821.

Question: With A111G A120C A145U C150G C169G as the variant, how does the reverse-splicing fitness read?
Answer: Its reverse-splicing fitness is 0.00597.

Question: For A111G A120G A145U C150G C169U U176C, which reverse-splicing fitness is on record?
Answer: The reverse-splicing fitness was 0.0171.

Question: For A111G A120G A145U C150G C169U U176G, which reverse-splicing fitness is on record?
Answer: Its reverse-splicing fitness is 0.00442.

Question: With A111G A120G A145U C150G C169U U176A as the variant, how does the reverse-splicing fitness read?
Answer: Its reverse-splicing fitness is 0.0148.

Question: Which reverse-splicing fitness does the source give for A111G A120C C150A C169A here?
Answer: The reverse-splicing fitness was 0.00922.

Question: For A111G A120C C150A C169U, which reverse-splicing fitness is on record?
Answer: Its reverse-splicing fitness is 0.0403.

Question: With A111G A120C C150A C169G as the variant, how does the reverse-splicing fitness read?
Answer: The reverse-splicing fitness was 0.00862.

Question: With A111G A120G A145G C150A C169G U176A as the variant, how does the reverse-splicing fitness read?
Answer: The reverse-splicing fitness was 0.0262.

Question: Which reverse-splicing fitness does the source give for A111G A120G A145G C150A C169G U176C here?
Answer: Its reverse-splicing fitness is 0.0371.

Question: With A111G A120G A145G C150A C169G U176G as the variant, how does the reverse-splicing fitness read?
Answer: The reverse-splicing fitness was 0.00578.

Question: With A111G A120G A145G C150A U176G as the variant, how does the reverse-splicing fitness read?
Answer: Its reverse-splicing fitness is 0.00788.

Question: With A111G A120G A145G C150A U176A as the variant, how does the reverse-splicing fitness read?
Answer: Its reverse-splicing fitness is 0.0225.

Question: With A111G A120G A145G C150A U176C as the variant, how does the reverse-splicing fitness read?
Answer: Its reverse-splicing fitness is 0.0374.

Question: With A111G A120G A145G C150A C169A U176G as the variant, how does the reverse-splicing fitness read?
Answer: Its reverse-splicing fitness is 0.00569.

Question: Which reverse-splicing fitness does the source give for A111G A120G A145G C150A C169A U176C here?
Answer: Its reverse-splicing fitness is 0.0283.

Question: With A111G A120G A145G C150A C169A U176A as the variant, how does the reverse-splicing fitness read?
Answer: Its reverse-splicing fitness is 0.0193.

Question: For A111G A120C C150G C169U U176A, which reverse-splicing fitness is on record?
Answer: Its reverse-splicing fitness is 0.00767.

Question: Which reverse-splicing fitness does the source give for A111G A120C C150G C169U U176G here?
Answer: The reverse-splicing fitness was 0.0044.

Question: With A111G A120C C150G C169U U176C as the variant, how does the reverse-splicing fitness read?
Answer: Its reverse-splicing fitness is 0.0152.

Question: Which reverse-splicing fitness does the source give for A111G A120G A145U C169A U176C here?
Answer: The reverse-splicing fitness was 0.0642.

Question: With A111G A120G A145U C169A U176A as the variant, how does the reverse-splicing fitness read?
Answer: The reverse-splicing fitness was 0.0397.

Question: For A111G A120G A145U C169A U176G, which reverse-splicing fitness is on record?
Answer: The reverse-splicing fitness was 0.00646.

Question: For A111G A120G A145U C150A U176G, which reverse-splicing fitness is on record?
Answer: The reverse-splicing fitness was 0.00541.

Question: With A111G A120G A145U C150A U176A as the variant, how does the reverse-splicing fitness read?
Answer: Its reverse-splicing fitness is 0.0179.

Question: For A111G A120G A145U C150A U176C, which reverse-splicing fitness is on record?
Answer: Its reverse-splicing fitness is 0.0234.

Question: Which reverse-splicing fitness does the source give for A111G A120G A145U C150A C169U U176C here?
Answer: Its reverse-splicing fitness is 0.0198.

Question: With A111G A120G A145U C150A C169U U176A as the variant, how does the reverse-splicing fitness read?
Answer: Its reverse-splicing fitness is 0.0273.

Question: Which reverse-splicing fitness does the source give for A111G A120G A145U C150A C169U U176G here?
Answer: Its reverse-splicing fitness is 0.00518.

Question: With A111G A120C A145U C150G U176C as the variant, how does the reverse-splicing fitness read?
Answer: Its reverse-splicing fitness is 0.0545.

Question: With A111G A120C A145U C150G U176G as the variant, how does the reverse-splicing fitness read?
Answer: The reverse-splicing fitness was 0.00444.

Question: For A111G A120C A145U C150G U176A, which reverse-splicing fitness is on record?
Answer: Its reverse-splicing fitness is 0.0189.
